Test results taken from the Human Domainome abundance scans (Beltran et al. 2025).
± gives the uncertainty stated by the source.

B1: Zinc finger homeobox protein 4, residues 2183 to 2238; numbered along this chain, Q86UP3 (parent)
chain: SSRTRFTDYQLRVLQDFFDTNAYPKDDEIEQLSTVLNLPTRVIVVWFQNARQKARK

Variants of: B1
Experiment: abundance fitness (aPCA) (normalised: wild type 0, dead -1); higher = more abundant; growth selection in yeast, the domain comes from the species named
Conditions: Homo sapiens

Abundance fitness: each site, then its substitutions
V45: S 0.072 ± 0.15, R -0.335 ± 0.11, K -0.26 ± 0.16, N -0.402 ± 0.44, I -0.175 ± 0.12, H -0.298 ± 0.34, E -0.049 ± 0.19, Y -0.149 ± 0.28, D 0.528 ± 0.19, Q -0.242 ± 0.19, A -0.09 ± 0.11, P -0.245 ± 0.2, L 0.007 ± 0.1, G 0.047 ± 0.1
Q52: Y -0.256 ± 0.28, N -0.166 ± 0.2, P -0.049 ± 0.15, T 0.011 ± 0.14, S -0.275 ± 0.16, V 0.026 ± 0.19, M -0.308 ± 0.39, R -0.401 ± 0.19, H -0.015 ± 0.23, A -0.418 ± 0.24, E 0.068 ± 0.32, L -0.121 ± 0.11
N37: A -0.02 ± 0.091, K 0.042 ± 0.11, D -0.061 ± 0.13, W -0.569 ± 0.11, H -0.282 ± 0.2, S -0.109 ± 0.096, F -0.308 ± 0.16, Q -0.137 ± 0.13, M -0.202 ± 0.14, Y -0.595 ± 0.21, I -0.172 ± 0.2, R -0.12 ± 0.081, L -0.156 ± 0.079, T 0.111 ± 0.11, V -0.056 ± 0.084, P -0.847 ± 0.18, C -0.358 ± 0.12, G -0.126 ± 0.078
L38: Y -0.431 ± 0.083, G -1.04 ± 0.13, T -0.007 ± 0.075, K -0.357 ± 0.13, H -0.305 ± 0.086, A -0.019 ± 0.082, I -0.061 ± 0.087, F -0.277 ± 0.087, C 0.018 ± 0.093, E -0.366 ± 0.14, P -0.913 ± 0.12, D -0.709 ± 0.12, V -0.051 ± 0.085, W -0.735 ± 0.14, R -0.416 ± 0.086, M -0.067 ± 0.1, N -0.914 ± 0.099, S -0.275 ± 0.074, Q -0.131 ± 0.11
T34: H 0.049 ± 0.14, W -0.244 ± 0.13, A -0.049 ± 0.084, C -0.106 ± 0.11, D -0.162 ± 0.11, R -0.069 ± 0.081, P -0.347 ± 0.11, S -0.066 ± 0.085, Q -0.128 ± 0.11, G -0.134 ± 0.074, I -0.256 ± 0.13, Y -0.061 ± 0.14, N -0.183 ± 0.14, F 0.062 ± 0.14, K 0.045 ± 0.12, L -0.004 ± 0.077, M -0.145 ± 0.12, E -0.165 ± 0.11
A50: Q -0.113 ± 0.18, E -0.116 ± 0.15, K -0.347 ± 0.2, V -0.044 ± 0.12, R -0.155 ± 0.086, C 0.045 ± 0.14, F -0.054 ± 0.28, I -0.396 ± 0.41, L -0.256 ± 0.12, H -0.394 ± 0.34, T -0.087 ± 0.19, P -0.87 ± 0.29, D -0.57 ± 0.41, N -0.033 ± 0.22
T40: I 0.591 ± 0.32, P -0.254 ± 0.28, S -0.213 ± 0.44, N -0.546 ± 0.45
S33: V -0.595 ± 0.3, C -0.357 ± 0.19, E -0.209 ± 0.31, L -0.946 ± 0.25, K -0.82 ± 0.4, R -0.486 ± 0.19, H -0.003 ± 0.21, M -0.35 ± 0.22, N -0.257 ± 0.14, G -0.23 ± 0.22, P -0.675 ± 0.15, Q -0.134 ± 0.31, Y -0.749 ± 0.23, D -0.884 ± 0.36, F -0.897 ± 0.19, I -1.04 ± 0.21, T -0.005 ± 0.13
R41: H -0.196 ± 0.16, S 0.083 ± 0.1, C -0.002 ± 0.14, K 0.033 ± 0.11, N 0.103 ± 0.21, M -0.081 ± 0.13, T 0.06 ± 0.11, V -0.008 ± 0.09, L -0.059 ± 0.085, W -0.335 ± 0.13, Q 0 ± 0.14, P -0.143 ± 0.13, D 0.204 ± 0.13, A 0.069 ± 0.11, Y 0.017 ± 0.17, E -0.181 ± 0.14
L36: R -0.811 ± 0.088, Y -0.8 ± 0.1, W -0.842 ± 0.13, C 0.008 ± 0.095, N -0.801 ± 0.1, D -0.933 ± 0.14, H -0.701 ± 0.11, A -0.098 ± 0.086, Q -0.877 ± 0.16, V 0.03 ± 0.074, T 0.045 ± 0.081, M -0.157 ± 0.13, E -1.19 ± 0.28, F -0.407 ± 0.086, K -0.794 ± 0.15, G -0.318 ± 0.087
P39: S -0.062 ± 0.099, K -0.245 ± 0.14, L -0.962 ± 0.15, W -1.22 ± 0.17, T -0.041 ± 0.11, D 0.093 ± 0.12, A -0.153 ± 0.09, E -0.037 ± 0.1, V -0.766 ± 0.1, M -0.69 ± 0.17, Y -0.701 ± 0.19, G 0.014 ± 0.077, R -0.097 ± 0.077, Q -0.095 ± 0.15, C -0.063 ± 0.13, H 0.154 ± 0.15, F -1.1 ± 0.25, N -0.127 ± 0.23
N49: A -0.418 ± 0.12, M -0.168 ± 0.14, K -0.153 ± 0.18, F 0.005 ± 0.27, C -0.252 ± 0.14, V -0.261 ± 0.11, W -0.352 ± 0.12, L -0.17 ± 0.1, Q -0.355 ± 0.19, H -0.077 ± 0.14, G -0.011 ± 0.084, Y -0.246 ± 0.19, T 0.073 ± 0.14, D 0.108 ± 0.17, E 0.032 ± 0.15, P -0.862 ± 0.22, I -0.127 ± 0.16
W46: V -0.803 ± 0.18, C -0.366 ± 0.21, R -0.344 ± 0.11, E -0.396 ± 0.27, M -0.864 ± 0.3, P -0.656 ± 0.36, A -0.669 ± 0.19, G -0.559 ± 0.16, L -0.691 ± 0.17, T -0.972 ± 0.48, S -0.403 ± 0.17
L32: K -0.735 ± 0.19, S -0.924 ± 0.1, W -0.399 ± 0.09, I -0.156 ± 0.15, Q -0.751 ± 0.15, N -0.683 ± 0.22, R -0.861 ± 0.1, P -0.797 ± 0.14, F -0.207 ± 0.11, M -0.019 ± 0.11, G -0.973 ± 0.098, Y -0.118 ± 0.15, T -1.05 ± 0.17, H -1.12 ± 0.29, V -0.235 ± 0.079
V35: F -0.206 ± 0.16, K 0.157 ± 0.12, L -0.004 ± 0.094, G 0.043 ± 0.076, S 0.03 ± 0.091, M 0.058 ± 0.15, R 0.06 ± 0.081, E -0.153 ± 0.1, Y -0.506 ± 0.22, P -0.297 ± 0.12, I -0.207 ± 0.19, N -0.427 ± 0.26, C 0.02 ± 0.17, W -0.202 ± 0.11, D -0.222 ± 0.16, T 0.108 ± 0.11, H -0.006 ± 0.17, Q 0.004 ± 0.12
F47: G -0.342 ± 0.09, K -0.694 ± 0.2, D -0.4 ± 0.24, Q -0.829 ± 0.22, A -0.406 ± 0.12, C -0.471 ± 0.18, V -0.264 ± 0.11, S -0.507 ± 0.12, P -1.06 ± 0.32, T -0.893 ± 0.29, H -0.6 ± 0.47, L -0.016 ± 0.092, N -0.778 ± 0.41, M -0.334 ± 0.15, Y -0.207 ± 0.28, R -0.801 ± 0.12, W -0.452 ± 0.14, E -0.967 ± 0.16, I 0.044 ± 0.4
R51: M -0.219 ± 0.23, W -0.194 ± 0.13, P -0.898 ± 0.24, I -0.235 ± 0.2, T -0.608 ± 0.24, V -0.043 ± 0.13, F -0.221 ± 0.23, E -0.144 ± 0.27, Y -0.175 ± 0.31, N -0.488 ± 0.34, G -0.317 ± 0.1, C -0.128 ± 0.24, Q -0.251 ± 0.24, A -0.24 ± 0.13, H -0.462 ± 0.25, K 0.035 ± 0.26, D -0.304 ± 0.26
V44: P -0.356 ± 0.075, K -0.22 ± 0.11, T -0.094 ± 0.07, N 0.002 ± 0.082, Y -0.223 ± 0.093, I 0.05 ± 0.079, D -0.064 ± 0.11, L 0.042 ± 0.068, M -0.136 ± 0.1, W -0.253 ± 0.12, E 0.125 ± 0.13, C 0.028 ± 0.1, A -0.067 ± 0.077, Q -0.052 ± 0.089, R -0.099 ± 0.081, G -0.059 ± 0.096, H -0.027 ± 0.078, S 0.008 ± 0.07
I43: W -1.07 ± 0.24, L -0.059 ± 0.1, K -1.22 ± 0.26, F -0.412 ± 0.23, M -0.394 ± 0.16, C -0.193 ± 0.37, A -0.259 ± 0.12, Q -0.964 ± 0.24, D -0.881 ± 0.29, G -1.01 ± 0.15, R -1 ± 0.13, P -0.869 ± 0.29, N -1.01 ± 0.31, T 0.032 ± 0.13, E -0.69 ± 0.16, S -0.766 ± 0.16, H -1.18 ± 0.29, V -0.12 ± 0.11
V42: I 0.043 ± 0.14, H 0.03 ± 0.16, A -0.093 ± 0.12, E 0.23 ± 0.14, T 0.043 ± 0.15, G -0.065 ± 0.086, S -0.077 ± 0.12, Y -0.18 ± 0.21, W -0.039 ± 0.12, Q -0.143 ± 0.14, R -0.2 ± 0.091, D 0.141 ± 0.15, K -0.236 ± 0.17, F -0.415 ± 0.19, N -0.345 ± 0.27, C -0.263 ± 0.2, L -0.155 ± 0.1, P -0.194 ± 0.16
Q48: S -0.161 ± 0.12, I -0.281 ± 0.29, M -0.278 ± 0.19, T -0.082 ± 0.23, P -1.11 ± 0.3, N -0.132 ± 0.18, V -0.061 ± 0.17, R -0.106 ± 0.1, D -0.021 ± 0.15, A 0.017 ± 0.19, E -0.134 ± 0.19, K -0.434 ± 0.23, G -0.177 ± 0.1, L -0.441 ± 0.2, C -0.051 ± 0.23, W -0.262 ± 0.18, H -0.418 ± 0.26
